Bridge positions count the residues as written; N and C are the ends. Square brackets hold non-standard residues; d marks the D form.
B1: ECII-25AA Cys/Ser mutant (Gln-)cyclopeptide (formula VII) (peptide)
peptide: cyclo(ARAESDEARRCYNDPKCSDFVTNRQ)
modifications: disulfide 11-17
SMILES: CC(C)[C@@H]1NC(=O)[C@H](Cc2ccccc2)NC(=O)[C@H](CC(=O)O)NC(=O)[C@H](CO)NC(=O)[C@@H]2CSSC[C@H](NC(=O)[C@H](CCCNC(=N)N)NC(=O)[C@H](CCCNC(=N)N)NC(=O)[C@H](C)NC(=O)[C@H](CCC(=O)O)NC(=O)[C@H](CC(=O)O)NC(=O)[C@H](CO)NC(=O)[C@H](CCC(=O)O)NC(=O)[C@H](C)NC(=O)[C@H](CCCNC(=N)N)NC(=O)[C@H](C)NC(=O)[C@H](CCC(N)=O)NC(=O)[C@H](CCCNC(=N)N)NC(=O)[C@H](CC(N)=O)NC(=O)[C@H]([C@@H](C)O)NC1=O)C(=O)N[C@@H](Cc1ccc(O)cc1)C(=O)N[C@@H](CC(N)=O)C(=O)N[C@@H](CC(=O)O)C(=O)N1CCC[C@H]1C(=O)N[C@@H](CCCCN)C(=O)N2
B2: ECII-18AA Cys/Ser mutant (Gln-)cyclopeptide (formula VI) (peptide)
peptide: cyclo(ADEARRCYNDPKCSDFVQ)
modifications: disulfide 7-13
SMILES: CC(C)[C@@H]1NC(=O)[C@H](Cc2ccccc2)NC(=O)[C@H](CC(=O)O)NC(=O)[C@H](CO)NC(=O)[C@@H]2CSSC[C@H](NC(=O)[C@H](CCCNC(=N)N)NC(=O)[C@H](CCCNC(=N)N)NC(=O)[C@H](C)NC(=O)[C@H](CCC(=O)O)NC(=O)[C@H](CC(=O)O)NC(=O)[C@H](C)NC(=O)[C@H](CCC(N)=O)NC1=O)C(=O)N[C@@H](Cc1ccc(O)cc1)C(=O)N[C@@H](CC(N)=O)C(=O)N[C@@H](CC(=O)O)C(=O)N1CCC[C@H]1C(=O)N[C@@H](CCCCN)C(=O)N2
B3: β1-ECII-18AA Cys/Ser cyclopeptide mutant with D-Glu ring closure (formula VIII) (peptide)
peptide: cyclo(ADEARRCYNDPKCSDFV[dE])
modifications: disulfide 7-13
SMILES: CC(C)[C@@H]1NC(=O)[C@H](Cc2ccccc2)NC(=O)[C@H](CC(=O)O)NC(=O)[C@H](CO)NC(=O)[C@@H]2CSSC[C@H](NC(=O)[C@H](CCCNC(=N)N)NC(=O)[C@H](CCCNC(=N)N)NC(=O)[C@H](C)NC(=O)[C@H](CCC(=O)O)NC(=O)[C@H](CC(=O)O)NC(=O)[C@H](C)NC(=O)[C@@H](CCC(=O)O)NC1=O)C(=O)N[C@@H](Cc1ccc(O)cc1)C(=O)N[C@@H](CC(N)=O)C(=O)N[C@@H](CC(=O)O)C(=O)N1CCC[C@H]1C(=O)N[C@@H](CCCCN)C(=O)N2
B4: ECII-22AA Cys/Ser mutant (Gly-)cyclopeptide (formula IX′) (peptide)
peptide: cyclo(RAESDEARRCYNDPKCSDFVTG)
modifications: disulfide 10-16
SMILES: CC(C)[C@@H]1NC(=O)[C@H](Cc2ccccc2)NC(=O)[C@H](CC(=O)O)NC(=O)[C@H](CO)NC(=O)[C@@H]2CSSC[C@H](NC(=O)[C@H](CCCNC(=N)N)NC(=O)[C@H](CCCNC(=N)N)NC(=O)[C@H](C)NC(=O)[C@H](CCC(=O)O)NC(=O)[C@H](CC(=O)O)NC(=O)[C@H](CO)NC(=O)[C@H](CCC(=O)O)NC(=O)[C@H](C)NC(=O)[C@H](CCCNC(=N)N)NC(=O)CNC(=O)[C@H]([C@@H](C)O)NC1=O)C(=O)N[C@@H](Cc1ccc(O)cc1)C(=O)N[C@@H](CC(N)=O)C(=O)N[C@@H](CC(=O)O)C(=O)N1CCC[C@H]1C(=O)N[C@@H](CCCCN)C(=O)N2

These binders were tested against anti-β1-ECII antibodies of GST/β1-ECII-immunized antibody-positive rats (sera or isolated IgG fractions) (rat) (assay: dose-dependent ELISA competition, n=6 rat sera).

decrease in free anti-beta1-ECII antibodies (%) at 8-fold molar excess of peptide [%]	decrease in free anti-beta1-ECII antibodies (%) at 20-fold molar excess of peptide [%]	decrease in free anti-beta1-ECII antibodies (%) at 80-fold molar excess of peptide [%]	decrease in receptor antibody-titers (%) at 8-fold molar excess of peptide [%]	decrease in receptor antibody-titers (%) at 20-fold molar excess of peptide [%]	decrease in receptor antibody-titers (%) at 80-fold molar excess of peptide [%]	Binder
30	49	83				B1
			24	35	50	ADEARRCYNDPKCSDFVQ [linear ECII-18AA Cys/Ser mutated (Gln18-)peptide]
			24	35	50	ARAESDEARRCYNDPKCCDFVTNRQ [linear non-mutated 3 Cys-containing ECII-25AA Cys/Cys (Gln25) peptide]
53	66	85				B2
46	56	71				cyclo(ADEARRCYNDPKCCDFVQ) (also: three Cys (7, 13, 14), disulfide pairing not defined) [3 Cys-containing β1-ECII-18AA Cys/Cys cyclopeptide]

These binders were tested against anti-β1-ECII antibodies in rat sera reacting with both the Cys/Ser and the Ser/Cys mutated cyclopeptides (type2 reaction, n=5) (rat) (assay: ELISA competition, type2 sera (n=5), linear 25AA Cys/Cys peptide as antigen).

blocking capacity (% of blocked versus non-blocked ELISA-reactivity) [%]	Binder
47	cyclo(ADEARRCYNDPKSCDFVQ) (disulfide 7-14 (inferred)) [β1-ECII-18AA Ser/Cys mutant (Gln-)cyclopeptide (formula X)]
33	cyclo(ADEARRCYNDPKSCDFV[dE]) (disulfide 7-14 (inferred)) [β1-ECII-18AA Ser/Cys cyclopeptide mutant with D-Glu ring closure (formula XII)]
48	B1
50	B2
72	cyclo(ARAESDEARRCYNDPKCCDFVTNRQ) (also: three Cys (11, 17, 18), disulfide pairing not defined) [3 Cys-containing β1-ECII-25AA Cys/Cys cyclopeptide]
67	cyclo(ADEARRCYNDPKCCDFVQ) (also: three Cys (7, 13, 14), disulfide pairing not defined) [3 Cys-containing β1-ECII-18AA Cys/Cys cyclopeptide]
47	B3
37	cyclo(ARAESDEARRCYNDPKSCDFVTNRQ) (disulfide 11-18 (inferred)) [β1-ECII-25AA Ser/Cys mutant (Gln-)cyclopeptide (formula XI)]

The binders below were run against anti-β1-ECII antibodies in rat sera preferentially reacting with the Cys/Ser mutated cyclopeptides (type1 reaction, n=64) (rat) (assay: ELISA competition, type1 sera (n=64), linear 25AA Cys/Cys peptide as antigen).

blocking capacity (% of blocked versus non-blocked ELISA-reactivity) [%]	Binder
1	cyclo(ADEARRCYNDPKSCDFVQ) (disulfide 7-14 (inferred)) [β1-ECII-18AA Ser/Cys mutant (Gln-)cyclopeptide (formula X)]
1	cyclo(ADEARRCYNDPKSCDFV[dE]) (disulfide 7-14 (inferred)) [β1-ECII-18AA Ser/Cys cyclopeptide mutant with D-Glu ring closure (formula XII)]
69	B1
68	B2
65	cyclo(ARAESDEARRCYNDPKCCDFVTNRQ) (also: three Cys (11, 17, 18), disulfide pairing not defined) [3 Cys-containing β1-ECII-25AA Cys/Cys cyclopeptide]
59	cyclo(ADEARRCYNDPKCCDFVQ) (also: three Cys (7, 13, 14), disulfide pairing not defined) [3 Cys-containing β1-ECII-18AA Cys/Cys cyclopeptide]
69	B3
6	cyclo(ARAESDEARRCYNDPKSCDFVTNRQ) (disulfide 11-18 (inferred)) [β1-ECII-25AA Ser/Cys mutant (Gln-)cyclopeptide (formula XI)]

These binders were tested against anti-β1-ECII antibodies of GST/β1-ECII-immunized antibody-positive rats (sera or isolated IgG fractions) (rat) (assay: ELISA after over-night incubation of n=6 rat sera with cyclopeptide (FIG. 27B, mean)).

blocking-efficiency (% of the ELISA signals of unblocked sera) [%]	Binder
74.9	B4
82	cyclo(RAESDEARRCYNDPKCCDFVTG) (also: disulphide pairing among Cys10, Cys16, Cys17 not defined) [cyc22AA Cys/Cys, 3 cysteine-containing cyclic β1-ECII 22AA peptide with a Gly closure site]
60	B2
73.4	cyclo(ARAESDEARRCYNDPKCCDFVTNRQ) (also: three Cys (11, 17, 18), disulfide pairing not defined) [3 Cys-containing β1-ECII-25AA Cys/Cys cyclopeptide]
66.1	cyclo(ADEARRCYNDPKCCDFVQ) (also: three Cys (7, 13, 14), disulfide pairing not defined) [3 Cys-containing β1-ECII-18AA Cys/Cys cyclopeptide]

The binders below were run against anti-β1-ECII antibodies of GST/β1-ECII-immunized antibody-positive rats (sera or isolated IgG fractions) (rat) (assay: ELISA competition, IgG of n=78 rats preincubated with peptide, linear 25AA Cys/Cys peptide as antigen).

blocking capacity (% of blocked versus non-blocked ELISA-reactivity) [%]	Binder
1	cyclo(ADEARRCYNDPKSCDFV[dE]) (disulfide 7-14 (inferred)) [β1-ECII-18AA Ser/Cys cyclopeptide mutant with D-Glu ring closure (formula XII)]
55	ARAESDEARRCYNDPKCCDFVTNRQ [linear non-mutated 3 Cys-containing ECII-25AA Cys/Cys (Gln25) peptide]
67	cyclo(ARAESDEARRCYNDPKCCDFVTNRQ) (also: three Cys (11, 17, 18), disulfide pairing not defined) [3 Cys-containing β1-ECII-25AA Cys/Cys cyclopeptide]
60	cyclo(ADEARRCYNDPKCCDFVQ) (also: three Cys (7, 13, 14), disulfide pairing not defined) [3 Cys-containing β1-ECII-18AA Cys/Cys cyclopeptide]
69	B3
6	cyclo(ARAESDEARRCYNDPKSCDFVTNRQ) (disulfide 11-18 (inferred)) [β1-ECII-25AA Ser/Cys mutant (Gln-)cyclopeptide (formula XI)]

— patent publication US20150038673A1
